Experiments:
[1] = biological target: T1, CTLA-4 on human T lymphocytes (PBMC, CD3+ T cells) (human, UniProt P16410 36-223); assay: cell-based or functional assay
T1 sequence (looked up): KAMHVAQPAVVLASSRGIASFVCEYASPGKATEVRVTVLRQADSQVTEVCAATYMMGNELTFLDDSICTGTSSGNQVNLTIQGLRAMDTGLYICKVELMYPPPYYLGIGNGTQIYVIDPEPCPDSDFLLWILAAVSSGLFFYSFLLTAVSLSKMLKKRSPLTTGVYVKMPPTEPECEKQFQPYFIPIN

[2] = biological target: T2, human CTLA-4 (Y201V), full length, on transfected cells (human, UniProt P16410 36-223); assay: FACS, human CTLA-4 expressing cells
T2 construct: whole, on cells; also called hCTLA-4; HEK293-hCTLA-4 (Y201V)
T2 sequence (looked up): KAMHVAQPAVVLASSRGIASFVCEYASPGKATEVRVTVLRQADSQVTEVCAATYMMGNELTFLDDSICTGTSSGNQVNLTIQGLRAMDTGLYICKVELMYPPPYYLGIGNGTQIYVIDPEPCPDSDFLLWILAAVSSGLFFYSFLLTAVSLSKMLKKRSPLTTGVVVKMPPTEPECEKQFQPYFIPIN

[3] = biological target: T3, monkey CTLA-4, full length, on transfected HEK293 cells (monkey); assay: FACS, monkey CTLA-4 expressing cells
T3 construct: whole, on cells; also called cCTLA-4; HEK293-cCTLA-4
Description: (§1) The pIRES plasmid with the monkey-derived CTLA-4 full-length gene was transfected into the HEK293 cell line to construct a HEK293 stable cell line containing monkey CTLA-4 (herein referred to as HEK293-cCTLA-4 stable cell line), wherein the database accession number of the monkey CTLA-4 nucleotide sequence is XM_005574014.1. The HEK293-hCTLA-4 stable cell line and HEK293-cCTLA-4 stable cell line were expanded in a T-75 cell culture flask to a 90% confluence. The medium was aspirated, and the cells were washed with HBSS buffer (Hanks Balanced Salt Solution, purchased from Invitrogen) twice, then treated with an enzyme-free cell dissociation fluid (Versene solution, purchased from Life technology) and the cells were collected. The cells were washed with HBSS buffer twice. After counted, the cells were diluted with HBSS buffer to 2×10⁶ cells per ml, added with 1% goat serum blocking solution, wherein the percentage was the mass percantage. Cells were incubated on ice for 30 minutes, then washed twice with HBSS buffer by centrifugation. The collected cells were suspended in the FACS buffer (HBSS containing 1% BSA, wherein the percentage was the mass percantage) to 2×10⁶ cells/ml, added as 100 microliters per well to a 96-well FACS reaction plate, added with 100 microliters per well of the purified CTLA-4 antibody sample to be tested, incubated on ice for 2 hours. The plate was washed twice with the FACS buffer by centrifugation, added with 100 microliters of fluorescent (Alexa 488)-labeled secondary antibodies (purchased from Invitrogen) per well, and incubated on ice for 1 hour. The plate was washed 3 times with FACS buffer by centrifugation, added with 100 μl fixative solution [4% (v/v) Paraformaldehyde] per well to suspend the cells. 10 minutes later, it was washed 2 times with FACS buffer by centrifugation. The cells were suspended with 100 microliters of FACS buffer, FACS (FACS Calibur, purchased from BD) was used for detection and the results were analyzed.

[4] = biological target: T4, CTLA-4-hFc (immunogen A; hFc-labeled CTLA-4 extracellular domain protein) (human, UniProt P16410 36-161); assay: blocking assay, CTLA-4 protein, competitor B7.2
T4 construct: range 36-161; Made in HEK293 cells, purified on protein A; also called CLTA-4-hFc; CTLA-4 protein; not shown: human IgG Fc fragment (hFc) of the pCpC vector
T4 sequence (looked up): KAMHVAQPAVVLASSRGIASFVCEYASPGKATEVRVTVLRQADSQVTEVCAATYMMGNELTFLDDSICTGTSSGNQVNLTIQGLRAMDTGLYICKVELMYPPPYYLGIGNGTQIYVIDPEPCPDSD
Description: (§2) CTLA-4 extracellular domain protein (CTLA-4-hFc) was diluted with PBS to a final concentration of 1.0 μg/mL, and then added to a 96-well ELISA plate as 100 μl per well. The plate was covered with a plastic film and incubated overnight at 4° C. The plate was washed twice with plate washing solution [PBS containing 0.01% (v/v) Tween 20] on the next day, and added with blocking solution [PBS containing 0.01% (v/v) Tween 20 and 1% (w/w) BSA] and blocked at room temperature for 2 hours. […] After 2 hours, the plate was washed 3 times with a plate washing solution [PBS containing 0.01% (v/v) Tween 20]. HRP (horseradish peroxidase) labeled avidin diluent (purchased from Sigma) was added 100 microliters per well, and after the plate was incubated for 2 hours at 37° C., it was washed with plate washing solution [PBS containing 0.01% (v/v) Tween 20] for 3 times. […] TMB substrate was added to each well. After incubated at room temperature for 30 minutes, the plate was added with […] stop solution (1.0N HCl) to each well. An ELISA plate reader (SpectraMax 384plus, Molecular Device) was used to read the A450 nm value.

[5] = biological target: T5, recombinant His-labeled hCTLA-4 ECD protein (human, UniProt P16410 36-161); assay: SPR Biacore T200, antibody captured by anti-human Fc, 1:1 model
T5 construct: extracellular domain; also called human CTLA-4 ECD; not shown: His label
T5 sequence (looked up): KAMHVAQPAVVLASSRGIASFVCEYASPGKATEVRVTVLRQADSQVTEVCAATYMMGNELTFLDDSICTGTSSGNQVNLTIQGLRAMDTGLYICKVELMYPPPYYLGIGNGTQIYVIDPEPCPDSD
Description: Anti-human Fc IgG was fixed on flow cell 1 and 2. HBS-EP+ (10 mmol/L HEPES, 150 mmol/L NaCl, 3 mM EDTA, 0.05% P20, pH 7.4) was used as the running buffer, and anti-human Fc IgG was fixed using the fixing wizard template. The flow cells 1 and 2 connected in series with S CM5 sensor chip were activated with freshly mixed 50 mmol/L NHS and 200 mmol/L EDC. Anti-human Fc IgG was diluted to […] with 10 mmol/L NaAC (pH 4.5) and injected into activated flow cells 1 and 2. The remaining active coupling sites were blocked with 1 mol/L ethanolamine.
The recombinant His-labeled hCTLA-4 ECD protein was diluted to 50 nmol/L, and then serially diluted 4 times with HBS-EP+ buffer at a 2-fold ratio. […] Each antibody was injected into the CM5 sensor flow cell 2 at a flow rate of 10 μL/min to achieve a response of 230 RU. Then the prepared His-labeled hCTLA-4ECD protein was injected into flow cells 1 and 2 at a flow rate of 30 μL/min for 180 seconds. The buffer flow was maintained for 400 seconds for dissociation measurement (30 μL/min). To remove the tested antibody from the surface, 10 mmol/L glycine-HCl pH1.5 was injected for 20 seconds (30 μL/min). Flow cell 1 was used as a reference flow cell. The above steps were repeated for each concentration of serially diluted His-labeled CTLA-4ECD protein. The KD value of each antibody was evaluated using Biacore T200 evaluation software 1.0, and a 1:1 binding model was used to fit the data.

[6] = biological target: T3, monkey CTLA-4, full length, on …; assay: FACS, 293F-cCTLA-4 cells
Description: as §1

[7] = biological target: T2, human CTLA-4 (Y201V), full length, on …; assay: FACS, CHOK1-hCTLA-4 cells
[8] = biological target: T4, CTLA-4-hFc (immunogen A; hFc-labeled …); assay: ELISA, coated CTLA-4-hFc, competitor biotin-B7.1-hFc
Description: as §2

[9] = biological target: T4, CTLA-4-hFc (immunogen A; hFc-labeled …); assay: ELISA, coated CTLA-4-hFc, competitor biotin-B7.2-hFc
Description: as §2

[10] = biological target: T4, CTLA-4-hFc (immunogen A; hFc-labeled …); assay: competition ELISA: CTLA-4-hFc coated, antibody titrated, blocked ligand biotin-labeled B7.1-hFc, HRP-avidin, A450, inhibition (%)
Description: as §2

[11] = biological target: T4, CTLA-4-hFc (immunogen A; hFc-labeled …); assay: competition ELISA: CTLA-4-hFc coated, antibody titrated, blocked ligand biotin-labeled B7.2-hFc, HRP-avidin, A450, inhibition (%)
Description: as §2

B1: 97B8E1 fully human CTLA-4 antibody (human IgG1, kappa) (antibody, V domains shown)
VH: QVQLVESGGGVVQPGRSLRLSCAASGFTFSSYVMHWVRQAPGKGLEWVAVIWSDGRNKYYTDSVKGRFTISRDNSKNTLYLQMSSLRAEDTAVYYCARSGIALAGNAFDIWGQGTMVTVSS
VL: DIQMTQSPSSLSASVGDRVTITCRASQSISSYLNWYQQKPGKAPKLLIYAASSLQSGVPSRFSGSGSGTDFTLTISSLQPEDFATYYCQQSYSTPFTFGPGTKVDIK
notes: also called mAb50; mAb050
What does the source list for B1?
IL-2 secretion, pg/ml, at 0.13 ug/ml, N = 1 [1]: 1570 pg/mL; IL-2 secretion, pg/ml, at 0.13 ug/ml, N = 2 [1]: 1450 pg/mL; IL-2 secretion, pg/ml, at 0.37 ug/ml, N = 1 [1]: 2480 pg/mL; IL-2 secretion, pg/ml, at 0.37 ug/ml, N = 2 [1]: 1860 pg/mL; IL-2 secretion, pg/ml, at 1.1 ug/ml, N = 1 [1]: 3460 pg/mL; IL-2 secretion, pg/ml, at 1.1 ug/ml, N = 2 [1]: 2560 pg/mL; IL-2 secretion, pg/ml, at 3.3 ug/ml, N = 1 [1]: 4240 pg/mL; IL-2 secretion, pg/ml, at 3.3 ug/ml, N = 2 [1]: 4200 pg/mL; IL-2 secretion, pg/ml, at 10 ug/ml, N = 1 [1]: 6650 pg/mL; IL-2 secretion, pg/ml, at 10 ug/ml, N = 2 [1]: 5210 pg/mL; IL-2 secretion, pg/ml, at 30 ug/ml, N = 1 [1]: 7650 pg/mL; IL-2 secretion, pg/ml, at 30 ug/ml, N = 2 [1]: 8210 pg/mL; MFI at 0.000128 nM [2]: 3; MFI at 0.0128 nM [2]: 31; MFI at 0.064 nM [2]: 85; MFI at 0.32 nM [2]: 229; MFI at 1.6 nM [2]: 491; MFI at 8 nM [2]: 727; MFI at 40 nM [2]: 902; MFI at 200 nM [2]: 886; MFI at 0.000128 nM [3]: 2; MFI at 0.0128 nM [3]: 36; MFI at 0.064 nM [3]: 97; MFI at 0.32 nM [3]: 270; MFI at 1.6 nM [3]: 504; MFI at 8 nM [3]: 757; MFI at 40 nM [3]: 810; MFI at 200 nM [3]: 784; % Block at 0.000128 nM [4]: 0%; % Block at 0.0128 nM [4]: 26.3%; % Block at 0.064 nM [4]: 42.8%; % Block at 0.32 nM [4]: 82.3%; % Block at 1.6 nM [4]: 98.7%; % Block at 8 nM [4]: 99%; % Block at 40 nM [4]: 99%; % Block at 200 nM [4]: 99.1%; Kd [5]: 3.5 nM; koff [5]: 0.00151 s⁻¹; kon [5]: 431000 M⁻¹ s⁻¹

B2: 40C4C6 (chimeric antibody purified from hybridoma supernatant) (antibody, V domains shown)
VH: QVQLVESGGGVVQPGRSLRLSCAASGFTFSSYGMHWVRQAPGKGLEWVAVIWYDGRNKYYADSVKGRFTISRDNSKNTLYLQMNSLRAEDTAVYYCARASGSYSYYFDYWGQGTLVTVSS
VL: DIQMTQSPSSLSASVGGRVTITCRASQSISSFLNWYQHELGKAPKLLIYGASSLQSGVPSRFSGSGSGTDFTLTISSLQPEDFATYYCQQTYSTPFTFGPGTKVDIK
notes: also called mAb09; mAb009
What does the source list for B2?
MFI at 0.000128 nM [6]: 2.4; MFI at 0.0128 nM [6]: 23; MFI at 0.064 nM [6]: 68.6; MFI at 0.32 nM [6]: 219; MFI at 1.6 nM [6]: 421; MFI at 8 nM [6]: 619; MFI at 40 nM [6]: 626; MFI at 200 nM [6]: 643; MFI at 0.07 nM [7]: 43.3; MFI at 0.67 nM [7]: 146; MFI at 6.67 nM [7]: 403; MFI at 66.67 nM [7]: 449; Inhibition rate (%) at 0.00091 nM [8]: 0%; Inhibition rate (%) at 0.091 nM [8]: 12.7%; Inhibition rate (%) at 0.274 nM [8]: 40%; Inhibition rate (%) at 0.823 nM [8]: 63.1%; Inhibition rate (%) at 2.5 nM [8]: 75.2%; Inhibition rate (%) at 7.4 nM [8]: 80.7%; Inhibition rate (%) at 22.2 nM [8]: 87.5%; Inhibition rate (%) at 66.7 nM [8]: 89.7%; Inhibition rate (%) at 0.00091 nM [9]: 0%; Inhibition rate (%) at 0.091 nM [9]: 5.3%; Inhibition rate (%) at 0.274 nM [9]: 26.4%; Inhibition rate (%) at 0.823 nM [9]: 53.3%; Inhibition rate (%) at 2.5 nM [9]: 66.6%; Inhibition rate (%) at 7.4 nM [9]: 76.6%; Inhibition rate (%) at 22.2 nM [9]: 84.6%; Inhibition rate (%) at 66.7 nM [9]: 88.7%; IC50 (read off the curve) [10]: ~0.3 nM; IC50 (read off the curve) [11]: ~0.5 nM

From US20210324080A1 (JIANGSU HUAIYU PHARMACEUTICAL, published 2021)
